Results taken from patent publication US20110262444A1.

Target: rabbit polyclonal antibodies for Peptide 2 (CRNGDD, SEQ ID NO: 2)
Assay: Western blot, inhibition of H6D antibody binding to CRNGDD-BSA by free peptide, 10 µg peptide/µl antiserum

## CRNGDD [CRNGDD (SEQ ID NO: 2) peptide, free]
  percent inhibition: 81%
